Laboratory results: patent publication US20240174727A1, “LONG-ACTING NATRIURETIC PEPTIDES AND USES THEREOF” (Eli Lilly and Company, priority 2022, published 2024)
Numbered stars: 1 amine (or outer) side, 2 acyl side, 3 side chain; on linkers, the order of the positions; unused ones are H or OH. Bridge positions count the residues as written; N and C are the ends. Square brackets hold non-standard residues; d marks the D form. * marks the point of attachment. thioacetal = thioacetal linkage between two cysteines (intrachain bond at the bracketed Cys); C20 diacid = O=C(O)CCCCCCCCCCCCCCCCCCC(=O)*; C16 diacid = O=C(O)CCCCCCCCCCCCCCC(=O)*; γGlu = O=C(O)[C@H](CCC(=O)[*:2])N[*:1]; 4Pal = N[C@@H](Cc1ccncc1)C(=O)O; Aib = CC(C)(N)C(=O)O; βAla = NCCC(=O)O

T1: human NPRA (human, UniProt P16066 33-1061)
T1 sequence (looked up): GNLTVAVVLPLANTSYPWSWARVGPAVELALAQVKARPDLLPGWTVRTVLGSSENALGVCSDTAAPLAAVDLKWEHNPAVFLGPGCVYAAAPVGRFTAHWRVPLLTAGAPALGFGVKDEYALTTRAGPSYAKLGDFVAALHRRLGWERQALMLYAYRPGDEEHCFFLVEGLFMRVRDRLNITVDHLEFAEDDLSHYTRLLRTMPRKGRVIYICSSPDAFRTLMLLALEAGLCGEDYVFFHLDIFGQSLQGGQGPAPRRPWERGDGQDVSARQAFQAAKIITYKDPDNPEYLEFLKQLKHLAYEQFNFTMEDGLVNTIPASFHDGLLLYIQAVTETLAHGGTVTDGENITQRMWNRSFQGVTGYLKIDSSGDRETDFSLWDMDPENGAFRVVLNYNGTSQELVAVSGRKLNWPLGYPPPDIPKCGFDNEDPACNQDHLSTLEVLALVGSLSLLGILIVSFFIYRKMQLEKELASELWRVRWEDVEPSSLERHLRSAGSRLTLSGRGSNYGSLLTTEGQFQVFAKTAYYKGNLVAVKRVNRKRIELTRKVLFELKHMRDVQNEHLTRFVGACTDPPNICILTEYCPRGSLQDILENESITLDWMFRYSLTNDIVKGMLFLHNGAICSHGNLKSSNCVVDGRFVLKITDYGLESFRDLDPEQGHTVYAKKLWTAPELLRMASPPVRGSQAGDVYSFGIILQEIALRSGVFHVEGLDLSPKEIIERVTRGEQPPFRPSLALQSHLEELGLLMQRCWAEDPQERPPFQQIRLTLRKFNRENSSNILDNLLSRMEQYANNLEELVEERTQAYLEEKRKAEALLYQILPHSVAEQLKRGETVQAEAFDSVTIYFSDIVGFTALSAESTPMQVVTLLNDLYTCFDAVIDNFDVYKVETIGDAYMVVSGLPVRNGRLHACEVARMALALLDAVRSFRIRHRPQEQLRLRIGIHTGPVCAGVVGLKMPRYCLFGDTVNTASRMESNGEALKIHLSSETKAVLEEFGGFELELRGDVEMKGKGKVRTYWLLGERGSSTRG

T2: rat NPRA (rat, UniProt P18910 29-1057)
T2 sequence (looked up): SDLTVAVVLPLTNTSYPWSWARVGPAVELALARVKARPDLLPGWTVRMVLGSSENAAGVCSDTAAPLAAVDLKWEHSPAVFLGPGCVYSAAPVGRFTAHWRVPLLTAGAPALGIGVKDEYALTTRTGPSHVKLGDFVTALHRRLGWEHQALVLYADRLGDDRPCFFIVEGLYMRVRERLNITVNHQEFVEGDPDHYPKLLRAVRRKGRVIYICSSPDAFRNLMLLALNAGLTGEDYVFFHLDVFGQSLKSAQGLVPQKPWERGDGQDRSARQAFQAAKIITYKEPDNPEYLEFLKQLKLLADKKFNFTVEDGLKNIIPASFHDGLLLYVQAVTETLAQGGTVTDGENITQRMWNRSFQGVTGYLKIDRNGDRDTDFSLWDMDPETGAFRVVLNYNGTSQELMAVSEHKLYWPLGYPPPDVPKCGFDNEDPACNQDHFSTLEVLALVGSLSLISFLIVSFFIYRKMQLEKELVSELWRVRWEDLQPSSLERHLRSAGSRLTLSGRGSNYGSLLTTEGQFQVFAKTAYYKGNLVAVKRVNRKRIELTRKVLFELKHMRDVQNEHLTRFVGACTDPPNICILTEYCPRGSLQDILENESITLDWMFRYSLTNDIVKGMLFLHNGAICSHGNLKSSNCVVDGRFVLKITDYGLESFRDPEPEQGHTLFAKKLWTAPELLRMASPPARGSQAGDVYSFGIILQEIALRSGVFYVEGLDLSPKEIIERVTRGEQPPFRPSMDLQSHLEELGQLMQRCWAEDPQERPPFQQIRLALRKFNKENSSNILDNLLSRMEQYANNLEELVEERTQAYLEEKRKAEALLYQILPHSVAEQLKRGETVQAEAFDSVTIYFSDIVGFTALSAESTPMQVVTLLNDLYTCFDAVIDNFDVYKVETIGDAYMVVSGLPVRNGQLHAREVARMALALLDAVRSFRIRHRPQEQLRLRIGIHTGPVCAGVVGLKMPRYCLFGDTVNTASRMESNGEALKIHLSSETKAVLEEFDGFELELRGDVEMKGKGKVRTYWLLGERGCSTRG


Columns and labels:
human NPRA = target: T1, human NPRA; assay: cell-based or functional assay
rat NPRA = target: T2, rat NPRA; assay: cell-based or functional assay

Row | Binder | cGMP Assay (EC50, pM) w/BSA (human NPRA) | cGMP Assay (EC50, pM) w/Casein (human NPRA) | cGMP Assay (EC50, pM) w/BSA (rat NPRA) | cGMP Assay (EC50, pM) w/Casein (rat NPRA)
1 | {C20 diacid}-[γGlu]EKEKEKGS[4Pal]RRSSCFGGRIDRIGHQSGLGCPSFRHSGAPPPSE-NH2 (disulfide 15-31) [Example 39] | 9970 pM | 276 pM | 93300 pM | 439 pM
2 | XEKEKEKGSXRRSSCFGGRIDRIGHQSGLGCPSFRHGGPSSGAPPPS (HOOC-(CH2)18-CO-(γGlu)-EKEKEKGS-4Pal-RRSS[CFGGRIDRIGHQSGLGC]PSFRHGGPSSGAPPPS-NH2; disulfide linkage between the bracketed Cys) [Example 1] | 11600 pM | 335 pM | 81900 pM | 1810 pM
3 | {C20 diacid}-[γGlu]EKEKEKGEKGRSSCFGGRIDRIGHYSGLGCPSLRHGGPSSGAPPPS-NH2 (disulfide 15-31) [Example 51] | 11100 pM | 361 pM | 82700 pM | 909 pM
4 | XEKEKEKGSXRRSSCFGGRIDRIGHQSGLGCPSFRHGGPSSGAPPPS (HOOC-(CH2)18-CO-(γGlu)-EKEKEKGS-4Pal-RRSS[CFGGRIDRIGHQSGLGC]PSFRHGGPSSGAPPPS-NH2; thioacetal linkage between the bracketed Cys) [Example 2] | 93400 pM | 1020 pM | 1.27e+06 pM | 14100 pM
5 | {C20 diacid}-[γGlu]EKEKEKGEK[βAla]RSSCFGGRIDRIGHYSGLGCPSFRHGGPSSGAPPPS-NH2 (disulfide 15-31) [Example 54] | 19300 pM | 369 pM | 77200 pM | 796 pM
6 | {C20 diacid}-[γGlu]EKEKEKGEK[βAla]RSSCFGGRIDRIGHYSGLGCPSFRHGGPSSGAPPPS-NH2 (bridge 15-31 via thioacetal) [Example 56] | 145000 pM | 855 pM | 1.38e+06 pM | 11200 pM
7 | {C20 diacid}-[γGlu]EKEKEKGKE[βAla]RSSCFGGRIDRIGHYSGLGCPSFRHGGPSSGAPPPS-NH2 (bridge 15-31 via thioacetal) [Example 58] | 104000 pM | 1220 pM | 1.38e+06 pM | 7150 pM
8 | {C20 diacid}-[γGlu]EKEKEKGEK[βAla]RSSCFGGRIDRIGHYSGLGCPSFRHGPSSGAPPPS-NH2 (bridge 15-31 via thioacetal) [Example 60] | 81700 pM | 453 pM | 962000 pM | 4830 pM
9 | SXRRSSCFGGRIDRIGHQSGLGCPSFRHGGPSSGAPPPS (HOOC-(CH2)18-CO-(γGlu)-EKEKEKG-PEG24-S-4Pal-RRSS[CFGGRIDRIGHQSGLGC]PSFRHGGPSSGAPPPS-NH2; thioacetal linkage between the bracketed Cys) [Example 61] | 9000 pM | 912 pM | 463000 pM | 32000 pM
10 | {C20 diacid}-[γGlu]EKEKEKGEK[βAla]RSSCFGGRIDRIGHYSGLGCPSLRHGGPSSGAPPPS-NH2 (bridge 15-31 via thioacetal) [Example 63] | 63800 pM | 1090 pM | 785000 pM | 10600 pM
11 | EKXRSSCFGKRIDRIGHQSGLGCPSFRHGGKSSGAPPPS (HOOC-(CH2)18-CO-(γGlu)-EKEKEKG-PEG24-EK-βAla-RSS[CFGKRIDRIGHQSGLGC]PSFRHGGKSSGAPPPS-NH2; thioacetal linkage between the bracketed Cys) [Example 3] | 6920 pM | 980 pM | 959000 pM | 36600 pM
12 | XEKEKEKGSKXRSSCFGGRIDRIGHYSGLGCPSFRHGGPSSGAPPPS (HOOC-(CH2)18-CO-(γGlu)-EKEKEKGSK-βAla-RSS[CFGGRIDRIGHYSGLGC]PSFRHGGPSSGAPPPS-NH2; thioacetal linkage between the bracketed Cys) [Example 65] | – | 614 pM | – | 7420 pM
13 | {C20 diacid}-[γGlu]EKEKEKGS[4Pal]RRSSCFGGRIDRIGHQSGLGCPSFRHGGKSSGAPPPS-NH2 (bridge 15-31 via thioacetal) [Example 67] | 139000 pM | 1220 pM | 1.55e+06 pM | 18800 pM
14 | {C20 diacid}-[γGlu]EKEKEKGS[4Pal]RRSSCFGGRIDRIGHQSGLGCPSFRHGGPPS[Aib]KPPPK-NH2 (bridge 15-31 via thioacetal) [Example 68] | – | 924 pM | 1.28e+06 pM | 12100 pM
15 | XEKEKEKGSXRRSSCFGGRIDRIGHQSGLGCPSFRHGGPSSGAPPPS (not fully specified; HOOC-(CH2)18-CO-(γGlu)-EKEKEKGS-4Pal-RRSS[CFGGRIDRIGHQSGLGC]PSFRHGGPSSGAPPPS-NH2; thioacetal linkage between the bracketed Cys) [Example 69] | 61400 pM | – | 804000 pM | –
16 | {C20 diacid}-[γGlu]EKEKEKGEK[βAla]RSSCFGGRIDRIGHYSGLGCPSFRHGGPSSGAPPPS-NH2 (bridge 15-31 via thioacetal) [Example 70] | 92500 pM | 1840 pM | 712000 pM | 11800 pM
17 | {C20 diacid}-[γGlu]EKEKEKGS[4Pal]RRSSCFGGRIDRIGHQSGLGCPSFRHGGPPS[Aib]KPPPK-NH2 (bridge 15-31 via thioacetal) [Example 71] | – | 594 pM | 594000 pM | 21000 pM
18 | {C20 diacid}-[γGlu]EKEKEKGS[4Pal]RRSSCFGGRIDRIGHQSGLGCPSFRHGGKSSGAPPPS-NH2 (bridge 15-31 via thioacetal) [Example 72] | 46400 pM | 588 pM | 1.07e+06 pM | 40500 pM
19 | {C16 diacid}-[γGlu]EKEKEKGEK[βAla]RSSCFGGRIDRIGHYSGLGCPSFRHGGKSSGAPPPS-NH2 (bridge 15-31 via thioacetal) [Example 73] | 5820 pM | 1230 pM | 76400 pM | 26000 pM
20 | EKXRSSCFGKRIDRIGHQSGLGCPSFRHGSPSSGAPPPS (HOOC-(CH2)18-CO-(γGlu)-EKEKEKG-PEG24-EK-βAla-RSS[CFGKRIDRIGHQSGLGC]PSFRHGSPSSGAPPPS-NH2; thioacetal linkage between the bracketed Cys) [Example 4] | 6180 pM | 813 pM | 519000 pM | 22500 pM
21 | {C20 diacid}-[γGlu]EKEKEKGEK[βAla]RSSCFGGRIDRIGHYSGLGCPSFRHGGKSSGAPPPS-NH2 (bridge 15-31 via thioacetal) [Example 74] | 171000 pM | 1590 pM | 1.13e+06 pM | 5820 pM
